# ± gives the half width of the 95% confidence interval.
# Assay: folding stability dG unfold from chymotrypsin proteolysis; higher = more stable
# Outline: (§1)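 Sequencing followed digestion of designed mini-proteins with trypsin and chymotrypsin, each at 11 concentrations in threefold dilutions together with a no-protease condition. The mini-proteins were under 80 residues, had no cysteine, sat in a PA-tagged cDNA display construct, and were kept only if AlphaFold2 dimer inter-PAE was above 15. From the counts, Bayesian fitting gave K50, and unfolding free energy was derived against a sequence-predicted unfolded-state K50 and a shared folded-state K50, per protease or combined.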
row,Sequence,folding stability dG unfold [kcal/mol]
1,SAGMEEEEVVLKIRVKDPETGEEKTFEVKLKDIEKVEVDEDGNIRIYLKEDGKEITIPADKITEVELLSAGG [r19_416_TrROS_Hall],3.86 ± 0.059
2,SELEDMTPEQLRERIRELLEELREERPGEEVEITIEELLERLPGMSREQLAEILGLTEEELENRTITIRASA [r9_525_TrROS_Hall],2.47 ± 0.085
3,KTIMIWFPFKSWEDVRNLIRDLARELNLPPGRDVDVKVERHPNNGYFRVTVTVSNPNGEKIDITIWFPMWDS [r1_84_TrROS],5.26 ± 0.15
4,SAGGSAGGSMPVITVDPSIKEFKDEKGNKYLLTPVTVTLPNGVPVTVVYTTDPSTGKTTPATSGSAGGSAGG [r6_298_JUSTAS],0.481 ± 0.12
5,SAGGYELELVFRFKLELKVGDGTLSFDLDLVIRIPLEPPAVPIGVEVKEDGSLVLTYPNGLKAEIPLSAGGS [r16_136_TrMRF],4.21 ± 0.06
6,SAGGSAGGSAGGSKYEIEILKIEELEDDSYRITAKINIPEAGTTEEITLTVPKGVELKLSAGGSAGGSAGGS [r4_133_TrMRF],1.21 ± 0.062
7,SAGGSAKKVRIEIERNADGTLRITVTLPDGTKKEITVDKPGMTLEEIAKKLGLPEGAEITEIERVPSAGGSA [r15_167_TrROS_Hall],2.71 ± 0.035
8,SAGGSAGGSAGGMIVIEVERKEGEEERKEVIVIPNDPEKAEAEAKKLAEEGPVEKVTIKKESAGGSAGGSAG [r3_310_JUSTAS],1.3 ± 0.066
9,SAGGSVITEEEKEKIKKEYPNLDIKLKALKPGETITYPNGTKVYGSPNGFLVEITNPDGTKTVIKESAGGSA [r2_166_JUSTAS],0.498 ± 0.16
10,SMKLKLYDPATGKWYELTYDPAKGTVTITYPDGKVITRPVKSIEVNPETGTITITFPDSTETFTVPESLISA [r9_325_JUSTAS],3.934 ± 0.031
11,SAGGGSMTTVRLTREINLPSSVSDEEIIEEIKEELPENYEILEVKIEKDPKTGKYYIEAEVKIPKLGSAGGS [r16_396_JUSTAS],2.269 ± 0.02

# Assay: folding stability dG unfold (combined trypsin and chymotrypsin); higher = more stable
# Outline: as §1
row,Sequence,folding stability dG unfold [kcal/mol]
1,SAGGSAGGSAAEVEVETLELEIDGVKITVTRVRNADGELLYFARIEVRPAPPPPPVSLEDLSAGGSAGGSAG [r3_68_TrROS_Hall],3.23 ± 0.12
2,SAGGMKPGQPWHEIEVQREIDLPPGQISAEEIADLIAELFPGFRVEDFRIEFTGKKWRIDVTIYIPYSAGGS [r8_202_TrROS],3.14 ± 0.11
3,SAGGSAGGSAGGPNIKIKDVHEHPPEDGNPIVMFEIKAKDDDGEKVYIIITPDKIHIMPISAGGSAGGSAGG [r7_960_TrROS],0.927 ± 0.21
4,SAGGSAGGSMPPVVLEVKDPESGKVTTLFFFPPTGEALVVPPDGSVFYEPFTSLDELVERLAGSAGGSAGGS [r12_511_TrMRF],1.57 ± 0.091
5,SAGGSAGGSAGGKVLHVPYENIEEKIKEAEEKYPNKEILIHAYLPNGKLLKTIKIKVKKSAGGSAGGSAGGS [r10_741_TrMRF],1.23 ± 0.053
6,SAGGIRIDDEGMIQIYFPGWRHTIPIKPNLEITEITIPDDGYIKITFRIPGKTVKHEFPMLPPGQEISAGGS [r16_635_TrROS],1.82 ± 0.27
7,SAALAELLLNEGYEVRIEVEVREVRPRTLPGGGTTVELDITVRIELRPPPIPPPPLDPRLLRDEDGHLRSAG [r14_569_TrMRF],2.15 ± 0.1
8,SAGPPPVKVTVTADYVIEDGKPIVTYTLTFPDGSTTTVTSDPETLVEWLKQHYPDIDVLNFNSGTAPAASAG [r5_25_JUSTAS],3.77 ± 0.13
9,SAGGSAGGSITPEEAKALAEEIKKALGVPDVEVLEIRVERDPERDFYTADIVIRLPDGSVIRASAGGSAGGS [r12_508_TrMRF],1.7 ± 0.11
10,SMKINVVINITLPDGTTVTSTLNLTESEIEKTIKEKIPSSYKVEITKKDPVDPAKLPPGSSINVDLTVNLSA [r9_803_JUSTAS],1.59 ± 0.22
11,SMKIEIIERNEDGEYVLVRITFEDGEEITIVAKTEEEAKEAAKEIAKELFPDVKIKKIEVVPLEDLPEELSA [r9_137_TrROS_Hall],1 ± 0.31
12,SAGGLLPLLKEIAEALGLPEIESLSFDPETGELTLRFRGPEPYLLRIPFRPVKDGGIPLDIEVYPTDLSAGG [r13_410_TrMRF],3.02 ± 0.056
13,SAGGSAGGSAGGEIEVKEGEVVLVRLPDGTLLLYDKNTRRLYRFRFKDGKLEVEELELPESAGGSAGGSAGG [r7_527_TrROS_Hall],4.03 ± 0.12
14,SAGGSAGGTATLVLPAAAFPSRPDGSLGLEEIRDVARPIAQEAFGTDDITLDVESHPDGFVTITFSSAGGSA [r15_562_TrMRF],0.519 ± 0.072
15,SAIEIYIYPDNWMISIEPPNPNGPEKEIMIPIDKDDLKNPEFLKEIADEIMENGIPVEADIMPPGQPIPSAG [r14_60_TrROS],0.307 ± 0.38
16,SAGGGTYIEIKVTYSDGTTETFTVPAKPEDIETVVKEIEDKLKELGGTITSIKIENGKITIEATIPDSAGGS [r16_662_TrMRF],3.06 ± 0.18
17,SAGGKKIEIKEENGSLVIKVDGYLVTIEPIDGKLVATVVKKDKKTKKWKIVETKILTLDEILELLKKSAGGS [r8_174_TrROS_Hall],2.66 ± 0.099
18,SAGGSAGGSAGGAKKAIEEAIKAGYLPYEDPESGKIHFYFPTPDGTIHKLTLFVAPEEESAGGSAGGSAGGS [r10_1173_TrMRF],0.796 ± 0.14
19,SAGGSAGGSAGGSSKVIEVNGYKITVTDNSVEIYNKKTGKKITVNADNPEVQELLKKLLSAGGSAGGSAGGS [r4_353_TrROS_Hall],4.07 ± 0.094
20,SAGGSAGGSKPDTIKITFPDGFEIEINGPGMIMIRFPEQGYIFRIPIDPDKNEIKIEIVEPLPSAGGSAGGS [r12_539_TrROS],3.05 ± 0.13
21,SAGGKITIEVTYNKETGEITIRITFNGKTIEIKIKVPGLSEEEVKKLAEELAKKLKEKYGIDKVEITSAGGS [r16_249_TrROS_Hall],4.36 ± 0.29
